Test results from IntAct's records for PubMed 26524528.

Key:
[1] = target: lmnb1_human LMNB1 (UniProt P20700)
[2] = target: lmnb1_human LMNB1 (UniProt P20700); remark: listed apart in the source
[3] = target: lmnb1_human LMNB1 (UniProt P20700); remark: listed apart in the source

Substance | effect of a mutation on the interaction [1] | effect of a mutation on the interaction [2] | effect of a mutation on the interaction [3]
Microtubule-associated protein 1 light chain 3 beta (Homo sapiens) (from UniProt Q9GZQ8) G120A | decreasing interaction strength | disrupting interaction strength | 
Microtubule-associated protein 1 light chain 3 beta (Homo sapiens) (from UniProt Q9GZQ8) R10A;R11A |  |  | disrupting interaction strength
